Assay results reported in US10822723B2, “Fusion protein crystal comprising a moiety” (Agency for Science, Technology and Research, priority 2015, dated 2020).

Biological target: T1, PAK4cat (Homo sapiens, UniProt O96013)
T1 construct: PAK1 (1-545) and PAK4 (286-591), respectively; 6His (N); made in house; host or cells: Escherichia coli BL21-CodonPlus(DE3)
Experiment: In vitro kinase assay, phosphorylation of GST-Raf13 by PAK4cat
Assay type: biochemical
Settings: in vitro, FIG. 1d
Protocol: Purified PAK1 or PAK4 (50 nM in 25-50 μl) were incubated with 10 μM GST-Raf1S338 peptide in 10 μM ATP (2 μCi of γ32P ATP) of kinase buffer (25 mM Hepes, pH 7.3, 0.1% Triton-X100, 50 mM KCl, 10 mM MgCl2, 1 mM DTT) at 30° C. for 20 min. Samples were analysed by SDS-polyacrylamide gel electrophoresis, or adsorption of the GST substrate mix onto PVDF membranes, followed by extensive washing to remove free γ32P-ATP. The synthetic peptides of 95% purity, as determined by HPLC and MS analyses (GenScript), were soluble in aqueous PBS. Stock solutions (10 mM) were quantified via calculated extinction coefficients and absorbance measurements at 280 nm and stored at −80° C. The diluted peptides were incubated at the indicated concentrations with the kinase on ice (10 min) before addition of γ32P ATP and subsequent incubation at 30° C. The synthetic peptide array (Jerini Biotools) was phosphorylated in situ as described previously.

T1 sequence (O96013 286-591): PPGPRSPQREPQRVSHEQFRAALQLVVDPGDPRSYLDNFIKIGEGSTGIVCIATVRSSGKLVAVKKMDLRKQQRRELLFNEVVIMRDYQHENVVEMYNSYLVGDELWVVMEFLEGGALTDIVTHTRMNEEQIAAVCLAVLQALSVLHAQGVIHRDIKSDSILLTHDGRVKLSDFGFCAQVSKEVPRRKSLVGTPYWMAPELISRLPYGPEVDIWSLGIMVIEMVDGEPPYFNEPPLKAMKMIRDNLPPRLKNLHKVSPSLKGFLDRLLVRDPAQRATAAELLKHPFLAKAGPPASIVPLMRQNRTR

Ki: ~30 nM
B1: Inka1: human Inka1, endogenous protein inhibitor of PAK4 (protein)
chain: MDMHSARLDSFLSQLRWELLCGRDTGSPSMPGPLQPTSQTGPDVQPSHQLRASGALEEDSVCCVEEEEEEEEEAVVTEDRDAALGGPREHALDWDSGFSEVSGSTWREEELPVSQRPAPSAQPLRRQCLSVSGLPMPSRAPVASVPPVHHPRPKSTPDACLEHWQGLEAEDWTAALLNRGRSRQPLVLGDNCFADLVHNWMELPETGSEGGDGGGHRARARPPQFLLGLSEQLRRRLARARRTAMAGKRLSCPPRPEPELPADVSRFAALMSCRSRQPIICNDVS
modifications: left off: small tags and cut ends
